Assay results: patent publication US20230045284

What was measured:
[1] = molecular target: GST-HRas (rGST-HRas), P01112
[2] = molecular target: T1, GST-Rit2, Q99578
T1 chain: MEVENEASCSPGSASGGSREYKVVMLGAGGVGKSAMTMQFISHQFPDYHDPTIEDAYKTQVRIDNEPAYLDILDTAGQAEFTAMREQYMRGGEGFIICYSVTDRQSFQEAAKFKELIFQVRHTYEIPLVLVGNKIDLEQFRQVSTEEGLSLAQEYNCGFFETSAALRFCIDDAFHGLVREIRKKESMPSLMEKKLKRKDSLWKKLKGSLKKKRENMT

[3] = molecular target: Recombinant 6xHis-tagged HRas (rHRas; NP_001123914.1), P01112
[4] = molecular target: Recombinant 6xHis-tagged KRas (rKRas; KRas4B NP_004976.2), P01116
[5] = molecular target: Recombinant 6xHis-tagged NRas (rNRas; NP_002515.1), P01111
Chain of Recombinant 6xHis-tagged NRas (rNRas; NP_002515.1), P01111 (P01111 whole entry): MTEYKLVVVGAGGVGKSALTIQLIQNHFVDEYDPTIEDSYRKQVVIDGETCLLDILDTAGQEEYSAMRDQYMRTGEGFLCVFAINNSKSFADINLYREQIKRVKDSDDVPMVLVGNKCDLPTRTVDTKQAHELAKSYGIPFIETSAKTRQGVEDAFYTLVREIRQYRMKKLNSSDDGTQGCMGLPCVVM

Chain of GST-HRas (rGST-HRas), P01112 (P01112 whole entry, looked up): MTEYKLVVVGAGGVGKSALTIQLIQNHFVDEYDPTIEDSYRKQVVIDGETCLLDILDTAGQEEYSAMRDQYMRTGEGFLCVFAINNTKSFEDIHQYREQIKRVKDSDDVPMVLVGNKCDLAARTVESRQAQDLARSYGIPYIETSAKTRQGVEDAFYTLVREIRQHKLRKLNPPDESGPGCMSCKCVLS
Chain of Recombinant 6xHis-tagged HRas (rHRas; NP_001123914.1), P01112 (P01112 whole entry, looked up): as above

B1: Recombinant 6xHis-tagged DUF5Vv (rDUF5Vv; V. vulnificus CMCP6 MARTXVv Q3596-L4089) (protein)
chain: QELKERAKVFAKPIGASYQGILDQLDLVHQAKGRDQIAASFELNKKINDYIAEHPTSGRNQALTQLKEQVTSALFIGKMQVAQAGIDAIAQTRPELAARIFMVAIEEANGKHVGLTDMMVRWANEDPYLAPKHGYKGETPSDLGFDAKYHVDLGEHYADFKQWLETSQSNGLLSKATLDESTKTVHLGYSYQELQDLTGAESVQMAFYFLKEAAKKADPISGDSAEMILLKKFADQSYLSQLDSDRMDQIEGIYRSSHETDIDAWDRRYSGTGYDELTNKLASATGVDEQLAVLLDDRKGLLIGEVHGSDVNGLRFVNEQMDALKKQGVTVIGLEHLRSDLAQPLIDRYLATGVMSSELSAMLKTKHLDVTLFENARANGMRIVALDANSSARPNVQGTEHGLMYRAGAANNIAVEVLQNLPDGEKFVAIYGKAHLQSHKGIEGFVPGITHRLDLPALKVSDSNQFTVEQDDVSLRVVYDDVANKPKITFKGSL
in vitro cleavage of rGST-GTPase, SDS-PAGE [1]: DUF5Vv could cleave only HRas
in-vitro cleavage of GST-fusion GTPases [2]: Rit2 was not cleaved at all
in vitro endopeptidase assay, SDS-PAGE [3]: showed the cleavage of rKRas, rHRas, and rNRas by rDUF5Vv
in vitro cleavage with varying concentrations of EDTA, equimolar 10 µM, 30 minutes at 37 C [4]: Cleavage was still observed
in vitro cleavage with varying concentrations of phenanthroline, equimolar 10 µM, 30 minutes at 37 C [4]: Cleavage was still observed
in vitro endopeptidase assay, SDS-PAGE [4]: showed the cleavage of rKRas, rHRas, and rNRas by rDUF5Vv
in-vitro cleavage reaction of purified proteins [4]: rKRas was efficiently cleaved within 10 min in a concentration-dependent manner
in vitro endopeptidase assay, SDS-PAGE [5]: The cleavage of rNRas was less efficient compared to rKRas and rHRas

B2: Recombinant 6xHis-tagged DUF5Ah (A. hydrophila ATCC7966 MARTXAh P3069-V3570) (protein)
chain: PGKTGVTERTARLFADVYSPDELKKAAQVFAKPIGESYQQILDQLATLHGASGQAKVEAALRLNNLIDDYLVKHEGSGRNPALSKLQSQLHGNLYRGELASLQAEVTALAKTRPDLAAIVIGKAAEEAQGQHPGLTQMVLRWAAQDPYLAAKAGYQGVVPADLPFDARFHIALGEQHDDLKKWLTEAQGKGLLNRAVLDDTRKVLHLGYSYQELQDMTGEQSAQMAVYFIKEAAKQAAPGSELSAELIMLDKFGDRRYLGELESRRIAQIENIYHSSKQTDVAAWDARYGGDALRTLNNQLDGESTLAGQLSRLLDNRNGLLIGETHGSDVNGLRFVNEQMDALKIQGVTVIALEHLRSELAQPLIDRYLAGGEMSPELTSMLKNKHLEPSLFERARERGMRIVALDDGSTARPAIAGTEHGLMYRAGAANNVAVEVLGKLPAGEKFVAIYGSAHLGSHKGIEGFVPGITHRLGLPALKVDADNRFHLQADDVSQRVEYADVGRKWTPVAAL
in vitro cleavage, SDS-PAGE [4]: The recombinant protein rDUF5Ah was able to cleave rKRas in the in vitro reaction

B3: Recombinant 6xHis-tagged DUF5Pa (P. asymbiotica ATCC43949 hypothetical protein, P41-V532) (protein)
chain: MVFEHDKTVERKRKPSIQLGNDKEKSSEQALELPQSKQNNPLLHDLITSNNLRKEAAVFAKQIGPSYQGILDGLEHLHNLSGNEQLTAGFELHRRITRYLEEHPDSKRNAALRRTQTQLGDLMFTGTLQEVRHPLLEMAETRPAMASQIYQIARDEAKGNTPGLTDLMVRWVKEDPYLAAKSGYQGKIPNDLPFEPKFHVELGDQFGEFKTWLDTAQNQGLLTHTRLDEQNKQVHLGYSYNELLDMTGGVESVKMAVYFLKEAAKQAEPGSAKSQEAILLNRFANPAYLTQLEQGRLAQMEAIYHSSHNTDVAAWDQQFSPDALTQFNHQLDNSVDLNSQLSFLLKDRQGLLIGESHGSDLNGLRFVEEQMDALKAHGVTVIGLEHLRSDLAQPLIDKFLTSENEPMPAELAAMLKTKHLSVNLFEQARSKQMKIIALDNNSTTRPAEGEHSLMYRAGAANNVAVERLQQLPAEEKFVAIYGNAHLQSHEGIDHFLPGITHRLGLPALKVDENNRFTAQADNINQRKCYDDVVEVSRIQLTS
in vitro cleavage, SDS-PAGE [4]: shown to also cleave rKRas
